From paper PMC5155159

Legend:
[1] = target: T1, Dicer TN (catalytically inactive), without ectopic TRBP;TRBP full length (D1-D2-D3) (UniProt Q9UPY3+Q15633); assay: single-molecule TIRF; details: amine-modified U69 (dye), 20 mM Tris pH 8.0, 200 mM KCl, 0.2 mM EDTA, glucose oxidase/catalase oxygen scavenger, 1 mM Trolox, 200 pM labelled RNA (200 nM in Methods), Mg2+ where …
[2] = target: Dicer TN (catalytically inactive), without ectopic TRBP (UniProt Q9UPY3); assay: single-molecule TIRF; details: amine-modified U69 (dye), 20 mM Tris pH 8.0, 200 mM KCl, 0.2 mM EDTA, glucose oxidase/catalase oxygen scavenger, 1 mM Trolox, 200 pM labelled RNA (200 nM in Methods), Mg2+ where …
TRBP recombinant = target: T2, TRBP recombinant (UniProt Q15633); assay: single-molecule TIRF; details: amine-modified U69 (dye), 20 mM Tris pH 8.0, 200 mM KCl, 0.2 mM EDTA, glucose oxidase/catalase oxygen scavenger, 1 mM Trolox, 200 pM labelled RNA (200 nM in Methods), Mg2+ where …
T2 sequence: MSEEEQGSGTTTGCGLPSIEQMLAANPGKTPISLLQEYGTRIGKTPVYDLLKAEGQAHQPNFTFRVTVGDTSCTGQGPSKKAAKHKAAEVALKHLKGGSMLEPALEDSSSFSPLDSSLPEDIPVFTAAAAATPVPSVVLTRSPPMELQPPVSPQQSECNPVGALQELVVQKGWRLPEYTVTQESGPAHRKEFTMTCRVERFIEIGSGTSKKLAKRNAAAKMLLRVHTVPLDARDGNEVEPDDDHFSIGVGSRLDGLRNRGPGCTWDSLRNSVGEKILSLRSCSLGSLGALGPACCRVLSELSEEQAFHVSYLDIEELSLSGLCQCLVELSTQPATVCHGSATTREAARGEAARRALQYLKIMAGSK

[3] = target: T1, Dicer TN (catalytically inactive), without ectopic TRBP;TRBP full length (D1-D2-D3); assay: single-molecule TIRF, two-color; details: amine-modified U69 (dye), 20 mM Tris pH 8.0, 200 mM KCl, 0.2 mM EDTA, glucose oxidase/catalase oxygen scavenger, 1 mM Trolox, 200 pM labelled RNA (200 nM in Methods), Mg2+ where …
[4] = target: T1, Dicer TN (catalytically inactive), without ectopic TRBP;TRBP full length (D1-D2-D3); assay: single-molecule TIRF competition; details: 1 uM competitor tRNA; WT or TN form not given; amine-modified U69 (dye); 20 mM Tris pH 8.0, 200 mM KCl, 0.2 mM EDTA, glucose oxidase/catalase oxygen scavenger, 1 mM Trolox; 200 pM labelled RNA (200 nM in Methods); Mg2+ where …
[5] = target: Dicer TN (catalytically inactive), without ectopic TRBP (UniProt Q9UPY3); assay: single-molecule TIRF competition; details: 1 uM competitor tRNA; WT or TN form not given; amine-modified U69 (dye); 20 mM Tris pH 8.0, 200 mM KCl, 0.2 mM EDTA, glucose oxidase/catalase oxygen scavenger, 1 mM Trolox; 200 pM labelled RNA (200 nM in Methods); Mg2+ where …
[6] = target: Dicer TN (catalytically inactive), without ectopic TRBP;TRBP D2-D3 (UniProt Q9UPY3+Q15633); assay: single-molecule TIRF competition; details: 1 uM competitor tRNA; WT or TN form not given; amine-modified U69 (dye); 20 mM Tris pH 8.0, 200 mM KCl, 0.2 mM EDTA, glucose oxidase/catalase oxygen scavenger, 1 mM Trolox; 200 pM labelled RNA (200 nM in Methods); Mg2+ where …
[7] = target: Dicer TN (catalytically inactive), without ectopic TRBP;TRBP D3 (UniProt Q9UPY3+Q15633); assay: single-molecule TIRF competition; details: 1 uM competitor tRNA; WT or TN form not given; amine-modified U69 (dye); 20 mM Tris pH 8.0, 200 mM KCl, 0.2 mM EDTA, glucose oxidase/catalase oxygen scavenger, 1 mM Trolox; 200 pM labelled RNA (200 nM in Methods); Mg2+ where …
[8] = equivalent IP amount, WT or TN form not given

UGAGGUAGUAGGUUGUAUAGUUUUAGGGUCACACCCACCACUGGGAGAUAACUAUACAAUCUACUGUCUUUCU [pre-let-7a-1 3' 2nt-biotin]
binding signal (binding events) ([1]; 14.2% long, 27.8 +/- 2.2 s, short 3.7 +/- 1.3 s, 85.8%, 3'-biotin): 341 | binding signal (binding events) ([2]; five times more than Dicer-TRBP, 56.7% long, 34.0 +/- 5.6 s, 3'-biotin): 1780 | binding signal (s (dwell time)) (TRBP recombinant; no noticeable difference from N1, 3'-biotin): 120 | binding signal (binding events) ([3]; 3'-biotin): 2340

UGAGGUAGUAGGUUGUAUAGUUUUAGGGUCACACCCACCACUGGGAGAUAACUAUACAAUCUACUGUCUUUC [pre-let-7a-1 3' 1nt]
binding signal (binding events) ([3]; 2.9x fewer than N1, 55.6% long, 25.3 +/- 2.9 s, short 3.7 +/- 0.8 s): 2750

UGAGGUAGUAGGUUGUAUAGUUUUAGGGUCACACCCACCACUGGGAGAUAACUAUACAAUCUACUGUCUUUCUUUUUUUUUUUUUUUUUUUUUUUUUUUUUUUUUUUUUUUUUUUUUUUUU [pre-let-7a-1 3' U49]
binding signal (s (dwell time)) (TRBP recombinant; no difference from N1): 120 | binding signal (binding events) ([3]; 2.5x fewer than N1, 31.0% long, 11.0 +/- 2.3 s, short 1.2 +/- 0.2 s): 2040

UGAGGUAGUAGGUUGUAUAGUUUUAGGGUCACACCCACCACUGGGAGAUAACUAUACAAUCUACUGUCUUUCU [pre-let-7a-1 3' 2nt (standard)]
binding signal (s (long dwell time)) ([1]; 48.1% long, short 1.5 +/- 0.4 s, 51.9%): 13.9 | binding signal (bound spots per field) [1, 8]: 781 | binding signal (s (long dwell time)) ([2]; 43.1% long, short 2.8 +/- 0.7 s, 56.9%, panel assignment from figure order): 21.9 | binding signal (bound spots per field) [2, 8]: 58 | binding signal (s (dwell time)) (TRBP recombinant; 200 pM RNA): 120 | binding signal (% inhibition of binding) [4]: 6.1 | binding signal (% inhibition of binding) [5]: 77.9 | binding signal (% inhibition of binding) [6]: 29 | binding signal (% inhibition of binding) [7]: 83 | binding signal (binding events) ([3]; with N2 at equal concentration, 57.7% long binding): 7410 | binding signal (s (long dwell time)) ([3]; with N3, 54.7% long, short 1.4 +/- 0.3 s): 17 | binding signal (binding events) ([3]; with N4, long 19.1 s, short 3.0 +/- 1.05 s, 54.0%): 8050
